Reference: patent US5773647A, “Compounds and compositions for delivering active agents” (Emisphere Technologies, Inc., priority 1997, dated 1998)
Read-outs that look alike come from different tables or passages of the source.

How the values were obtained:
[1] = In vivo interferon delivery (ELISA for human interferon); settings: 1 mg/kg interferon, no carrier
Experimental: (§1) An intracolonic dosing composition containing 50 mg/kg of carrier 9 and 250 μg/kg of interferon in 50% propylene glycol was prepared. Rats were administered the dosing composition by intracolonic instillation.
(§2) Rats were administered, orally and by intracolonic instillation, dosing solutions of 1 mg/kg of interferon and no carrier.

[2] = rat, in vivo, 50 mg/kg
Experimental: as §1, §2

| Mean peak serum interferon concentration [2] | Molecule | Mean peak serum interferon concentration ([1]; intracolonic (IC)) | Mean peak serum interferon concentration ([1]; oral (PO)) |
| --- | --- | --- | --- |
| – | interferon | 79±100 | 1951±1857 |
| 2611±695 | O=C(O)CCCc1ccc(NC(=O)COc2ccccc2)cc1 [Compound 9] | – | – |
